± gives the uncertainty stated by the source.

The nature of this data set: amyloid nucleation score (Sup35N fusion, yeast selection) (log enrichment); library NNK1; higher = more nucleation; inactive = no reads after selection. The gist of the method:
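Sup35N was fused to peptides of 20 random codons and expressed in psi-negative yeast, which were induced with 100 μM copper sulfate for 24 hours and then grown on medium lacking adenine and uracil for 7 days at 30°C. Plasmid inserts from input and output were sequenced on Illumina. The nucleation score is the DiMSum log enrichment of output over input reads, centred on the mode score of non-aggregating sequences. Sequences with under 100 input reads were left out, and random libraries had three technical output replicates.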
In the case of VWFVVGGGE, the amyloid nucleation score came out at 1.7 ± 0.42.
For the substance VWIALFDVTDDMSARTDIWS, the amyloid nucleation score was -0.876 ± 0.74.
VWISWMSRISITRLCVWGSV: the amyloid nucleation score amounted to 0.379 ± 0.41.
With VWSGEE the figure was -0.344 ± 0.38; with VWTMIYSTCGSDFYFCSVEL, 0.715 ± 0.47.
With VWTYNLI, the amyloid nucleation score entry was “inactive”.
VWVHD: the amyloid nucleation score worked out at 0.257 ± 0.26.
VWWHYLSLYAIWYSYVRLYV: the amyloid nucleation score was -0.097 ± 0.52.
As to VWYWLSNNLDVW, the amyloid nucleation score came out at 0.809 ± 0.98.
With VYAYTRY the figure was 0.194 ± 0.68; with VYCFCQNRSSFYGKMHLGMH, 1.25 ± 0.62.
Take VYKCSQVDRVCKMAWVGLKS: the amyloid nucleation score was 0.205 ± 0.34.
VYLNFTISKVEVVTFFFIMG displayed an amyloid nucleation score of 0.165 ± 0.34.
VYLVMSVCGTRNGYKHSSQL had an amyloid nucleation score of 0.265 ± 0.25.
VYNLFVEVVPILKNRLWFNY: the amyloid nucleation score was determined as 4.44 ± 0.094.
Take VYNWRLMEYHRGWDHFCYLS: the amyloid nucleation score is -0.559 ± 0.33.
As for VYRDLVDAYVTDYMCWGAPG, the amyloid nucleation score result is “inactive”.
On to VYRSHLRTNFSTFTSMSSVL, for which the amyloid nucleation score was -0.626 ± 1.4.
The result for VYYLIVHLHSGMLHQIVELS reads 0.707 ± 0.51; that for WAAFLVMDGWICDQAYMTMR, “inactive”.
As for WADTPRQLGCSSSSTISCSL, the amyloid nucleation score is -0.216 ± 0.4.
In turn, WAYYCYP registered an amyloid nucleation score of -2.01 ± 2.4.
In the case of WCHGHYHSSNEMSTI, the amyloid nucleation score is 1.37 ± 0.69.
As to WCNRHHDWVVLLAIVAGGEV, the amyloid nucleation score came out at 0.873 ± 0.64.
For the substance WCRRWFLLYWVCAETKFGSG, the amyloid nucleation score is -0.367 ± 0.52.
WCYFVRDGVGVGEVTCPRQR gave an amyloid nucleation score of 0.273 ± 0.54.
The result for WDAGVFWKMYLSTCRTSI reads 0.949 ± 0.54; that for WDLLLWSVNRDRRV, 1.47 ± 0.55; that for WDMAFSVALGLRYMRCGLKL, -0.286 ± 0.35.
For the substance WDWHIGRKWV, the amyloid nucleation score is -0.629 ± 0.62.
WEDSGVIFLMVCCSVYLGNL came in with an amyloid nucleation score of 2.66 ± 0.12.
As to WEGLQLLGS, the amyloid nucleation score was -0.138 ± 0.91.
The result for WELMLTTH reads 0.453 ± 0.33; that for WESEFYLGLELERVAGGSGG, -1.03 ± 2.7.
Consider WETGIRMFVKCRR, for which the amyloid nucleation score was determined as 0.906 ± 0.33.
Take WETVQLTGRVLFWAISYCKI: the amyloid nucleation score was -0.178 ± 0.52.
As for WFAAHPYFNWDGGIRY, the amyloid nucleation score was -1.41 ± 2.7.
In turn, WFGLQYMSWVSIESYGQAAW registered an amyloid nucleation score of 0.875 ± 0.97.
The result for WFHSQVTQNYSVWLLSTNYS reads -0.091 ± 0.56; that for WFIPNKGTYREAYFLSCLGS, -0.954 ± 1.3; that for WFMVVSRNMFCV, 0.456 ± 1.1.
The result for WFNWVCCNGNAWIKDRF reads 7.66 ± 0.054; that for WFSWLVGEILCWCGGWVRSK, 0.404 ± 0.51; that for WFWYIYM, 1.54 ± 0.19.
The result for WGCRV reads -0.451 ± 0.58; that for WGKYSD, 0.343 ± 0.7; that for WGLLLE, 4.13 ± 0.094.
Consider WGNTRYGTAASVCVTEVKGS, for which the amyloid nucleation score amounted to 0.048 ± 0.4.
Substance WHAHFEFNMLGILCRHFCSL gave an amyloid nucleation score of 3.19 ± 0.16.
In turn, WHTCYHSWSASIVLAPVSTT returned an amyloid nucleation score of -0.009 ± 0.39.
Substance WIHIVYGFWSWVWGI displayed an amyloid nucleation score of -0.327 ± 0.47.
For WIILFWHYFSKYFQPLIGRS, the amyloid nucleation score entry is “inactive”.
Turning to WINFMSQWDPLGRQYVWHIQ, the amyloid nucleation score worked out at 1.81 ± 0.36.
Turning to WIPSFIQMDTVVRDTVNKEF, the amyloid nucleation score was determined as 1.09 ± 0.74.
With WIRDDVVMGGAECCLVLNQ, the amyloid nucleation score came to 1.24 ± 0.58.
The result for WISKWHYGAQSSARSKYARI reads 0.864 ± 0.47.
With WKKGRMMIKSQSGGLSQVWG the figure was 1.05 ± 0.59; with WLESLARDSCSRFIDLHEWG, -0.615 ± 1.5.
In the case of WLEYYYCMLHDELIS, the amyloid nucleation score is 0.109 ± 0.29.
Take WLLLNDSFSTRHLFMPRSKW: the amyloid nucleation score is -0.381 ± 0.75.
The substance WLRRCEGGKMSYSSLSTVES had an amyloid nucleation score of -0.563 ± 0.45.
The substance WLSETAAWENTYRCLRILHG registered an amyloid nucleation score of -0.446 ± 0.4.
WMLHMASGGTLCEEASVLVV gave an amyloid nucleation score of -0.148 ± 0.55.
Regarding WMNFWHLFSVFLLFSAICWF, the amyloid nucleation score was -0.006 ± 0.61.
The result for WNCKLTMADGGSAKVAPLSS reads 0.38 ± 0.32; that for WNRVWIMYGT, 1.57 ± 0.22; that for WNYIEGASFSRMGEASNAPG, -0.944 ± 1.2.
Take WPCKAFFSSAGLRYGVNLA: the amyloid nucleation score was -0.833 ± 0.9.
For WPSKAQAVFTNTSTLNVSRF, the amyloid nucleation score result is “inactive”.
On to WQTSSNGLSLKATCLTYKSF, for which the amyloid nucleation score turned out to be 0.016 ± 1.7.
On to WRAMAFVYLVASWSVGIRGR, for which the amyloid nucleation score was found to be 0.07 ± 1.
The result for WRFEYWFRGIHYCIYNYFC reads -0.011 ± 0.89; that for WRIMNHNVLLMLVRLGSILL, 1.18 ± 0.28.
WRMVAIWKNLD: the amyloid nucleation score is -0.013 ± 0.56.
WRMYMYVNNPSNKHWVRRAS displayed an amyloid nucleation score of -0.488 ± 0.51.
WSCTSCFNYGLF displayed an amyloid nucleation score of 7.178 ± 0.052.
For the substance WSGFFFAGLWVVLCVEGGAC, the amyloid nucleation score came to 0.192 ± 0.88.
WSGTDRMCSVMTYS registered an amyloid nucleation score of -0.841 ± 0.51.
WSHADILV: the amyloid nucleation score entry is “inactive”.
The substance WSKLYIAK came in with an amyloid nucleation score of -0.69 ± 0.41.
The result for WSLWLRRDFSR reads 0.76 ± 0.61.
With WSPNNTISNGMTKVWASGRL the figure was 0.78 ± 0.56; with WSRSLVLGPLEMAHTKAVQN, -0.658 ± 1.4; with WSSPQEQT, -1.59 ± 1.5.
Substance WSSTTNWMLRPFKCANRLGW yielded an amyloid nucleation score of -0.529 ± 1.3.
With WSSWGGSTGVVRKREELCGR the figure was -0.44 ± 0.5; with WSVSASQFRSVPRSPFALSQ, -0.303 ± 0.26; with WSWRLPGPCLFFCAEEQLTK, 1.32 ± 0.84.
With WTTMFAFAF, the amyloid nucleation score was determined as 1.42 ± 0.44.
The result for WTYRQLKSAGKEHVYFLKVR reads -0.031 ± 1.2; that for WVNCLFIYWFCFDALPIIVE, -0.616 ± 0.4; that for WVPMDVF, 1.61 ± 0.35.
Substance WVQFLDMGAVMKIWLVKCFP had an amyloid nucleation score of -0.485 ± 1.1.
With WVSMKVVGVKHSGLDWRIL the figure was 0.012 ± 0.52.
As for WVVVDTLVRTGGCCWGYWKT, the amyloid nucleation score turned out to be 1.91 ± 0.27.
Take WVWDCFHDCVPYMGRTGLVA: the amyloid nucleation score was -0.56 ± 0.93.
On to WVWDGDIGGWNVKPFHRVRG, for which the amyloid nucleation score worked out at 0.121 ± 0.58.
With WWDHVWGVR the figure was 0.31 ± 0.75.
WWFRK registered an amyloid nucleation score of 0.654 ± 1.1.
Consider WYAGFTGRFRSLFFIISIFG, for which the amyloid nucleation score is -0.529 ± 1.
The result for WYGVFALMIGRSIFD reads -0.027 ± 0.27; that for WYRYEPLVMTRQMSGVGPMR, 0.124 ± 0.33.
Substance WYVLARGMYENTLVGSCSMV showed an amyloid nucleation score of 6.13 ± 0.088.
The result for YALRVSR reads -0.346 ± 0.43; that for YAPWGGKNSRYAGSVM, 0.701 ± 0.33.
The result for YARVGKRNGSRNPYFINWGR reads -0.733 ± 1.3; that for YATTD, -0.776 ± 0.58; that for YAVRYFETVVLQGIEVIPES, 0.205 ± 0.6.
The result for YAYMVLVVPRDSVLEESECR reads -0.087 ± 0.78; that for YCDAYPGRKTEILVVQLF, 5.6 ± 0.064.
YCGSTWASVWGPIICPRYRA returned an amyloid nucleation score of 0.208 ± 0.33.
As for YCMCCNNRVLMVYHCTQVSA, the amyloid nucleation score entry is “inactive”.
On to YCSHMLRMYFSEDRPLAQLM, for which the amyloid nucleation score is -0.399 ± 0.74.
The result for YCSKRFLVKRNFLLFYNCDF reads 1.03 ± 0.5.
YDLGMLLF: the amyloid nucleation score was found to be 0.812 ± 0.77.
YDWNNLDVLLHCLFFGDKRR had an amyloid nucleation score of -0.021 ± 0.26.
The substance YEALQ showed an amyloid nucleation score of -0.703 ± 1.
On to YEFTYLWNNKVLLGLCCYGG, for which the amyloid nucleation score worked out at 4 ± 0.13.
YEKSFGTYTM showed an amyloid nucleation score of -0.045 ± 0.28.
In the case of YEKVSDQGNLGLASIYLAGK, the amyloid nucleation score is -0.159 ± 0.22.
The substance YESCRVHVSIIYPPASGHRA gave an amyloid nucleation score of 2.9 ± 0.12.
Take YESRCGWASRNFSLSENQNS: the amyloid nucleation score result is “inactive”.
As for YFAPFRGTSWFTRSCN, the amyloid nucleation score was -0.011 ± 0.79.
For YFAVL, the amyloid nucleation score entry is “inactive”.
In turn, YFCILGSNDSNRIGWPRRST showed an amyloid nucleation score of 0.101 ± 0.42.
Substance YFDLWALSVLCCFFGVNSPF came in with an amyloid nucleation score of 5.69 ± 0.087.
With YFDWLGCLLTWQRKYVQT the figure was -0.048 ± 0.93; with YFLSHRCTGGLPIS, -0.028 ± 0.9; with YFSHTSWLYFSTPFIVVVRV, 0.25 ± 0.97.
For the substance YFSKICRSLFDM, the amyloid nucleation score came out at 0.906 ± 1.1.
YFSKTISFLFSFNSCYEFIK displayed an amyloid nucleation score of 1.19 ± 0.44.
In the case of YFSLFYCKVSGESTLYFCGH, the amyloid nucleation score was determined as 5.88 ± 0.066.
YFSVHF displayed an amyloid nucleation score of 2.29 ± 0.15.
As to YFWLNTNTLCSYWRMRHWVS, the amyloid nucleation score amounted to 0.524 ± 0.61.
Consider YGCVCGSDNTHWNYMLVNNH, for which the amyloid nucleation score amounted to 7.222 ± 0.051.
As to YGFRQGTTSDNGTFTRIVHM, the amyloid nucleation score is -0.336 ± 0.5.
In turn, YGHLVYTDHVWRRFETVKG had an amyloid nucleation score of 0.661 ± 0.84.
Regarding YGLSSGFLYADLEDVPALLW, the amyloid nucleation score was found to be 0.681 ± 0.45.
The substance YGPGWTRWLENLSLYSMYEP yielded an amyloid nucleation score of -0.102 ± 1.5.
YGPSNYTIAQSS: the amyloid nucleation score is -0.234 ± 0.43.

These data come from the supplement of paper PMC12042874.
